Target: T1, FZD3 (human (endogenous in hESC-derived EPs)) (UniProt Q9NPG1)
T1 sequence: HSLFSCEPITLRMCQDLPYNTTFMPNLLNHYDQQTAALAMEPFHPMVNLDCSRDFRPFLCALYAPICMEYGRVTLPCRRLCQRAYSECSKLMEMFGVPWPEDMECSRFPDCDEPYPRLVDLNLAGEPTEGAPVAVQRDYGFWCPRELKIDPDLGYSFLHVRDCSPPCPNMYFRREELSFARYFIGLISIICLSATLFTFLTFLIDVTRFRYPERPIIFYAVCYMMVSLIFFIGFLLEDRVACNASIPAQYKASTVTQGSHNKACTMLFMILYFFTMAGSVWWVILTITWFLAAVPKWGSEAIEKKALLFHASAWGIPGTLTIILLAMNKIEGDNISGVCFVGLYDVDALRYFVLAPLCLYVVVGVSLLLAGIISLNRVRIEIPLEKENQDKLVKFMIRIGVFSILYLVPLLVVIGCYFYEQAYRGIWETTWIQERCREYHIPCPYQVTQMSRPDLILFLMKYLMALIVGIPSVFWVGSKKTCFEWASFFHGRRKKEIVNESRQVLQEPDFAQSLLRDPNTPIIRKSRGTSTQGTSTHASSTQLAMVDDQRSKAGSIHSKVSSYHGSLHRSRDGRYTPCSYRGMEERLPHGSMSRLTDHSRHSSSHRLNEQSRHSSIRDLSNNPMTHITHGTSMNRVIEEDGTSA

INS+ cell number (immunofluorescence, day 3) of hESC-derived EPs treated with WNT5A and FZD3-neutralizing antibodies, compared to WNT5A treated EPs: 2.5 fold
B1: WNT5A recombinant protein (ligand)
chain: IIGAQPLCSQLAGLSQGQKKLCHLYQDHMQYIGEGAKTGIKECQYQFRHRRWNCSTVDNTSVFGRVMQIGSRETAFTYAVSAAGVVNAMSRACREGELSTCGCSRAARPKDLPRDWLWGGCGDNIDYGYRFAKEFVDARERERIHAKGSYESARILMNLHNNEAGRRTVYNLADVACKCHGVSGSCSLKTCWLQLADFRKVGDALKEKYDSAAAMRLNSRGKLVQVNSRFNSPTTQDLVYIDPSPDYCVRNESTGSLGTQGRLCNKTSEGMDGCELMCCGRGYDQFKTVQTERCHCKFHWCCYVKCKKCTEIVDQFVCK

— PMC9005503
